The DeepSol protein solubility set

Test: soluble on expression in E. coli; label from the status in PepcDB or PDB records

Row | Sequence | soluble on expression in E. coli
1 | MSLDTFKNKPLGDNFTLTDSNGNTITEADIRSKPSIIFFGFTMCPESCPTTLTNLDRWLTSLGADADKLGVWFVTVDPERDTPEVLHDYLSNFNHKIVGISGEPEKVHKMVDSFNIVAEKVPGTDGNYTYNHTAAIFLLKKGGKLAGVIPYKIEKNNEELRDNIAIEKLKQLVLNEGHHHHHH | soluble
2 | MSLDVQSDIVAYDAPKKDLYEIGEMPPLGHVPKEMYAWAIRRERHGEPDQAMQIEVVETPSIDSHEVLVLVMAAGVNYNGIWAGLGVPVSPFDGHKQPYHIAGSDASGIVWAVGDKVKRWKVGDEVVIHCNQDDGDDEECNGGDPMFSPTQRIWGYETPDGSFAQFTRVQAQQLMKRPKHLTWEEAACYTLTLATAYRMLFGHKPHDLKPGQNVLVWGASGGLGSYAIQLINTAGANAIGVISEEDKRDFVMGLGAKGVINRKDFKCWGQLPKVNSPEYNEWLKEARKFGKAIWDITGKGINVDMVFEHPGEATFPVSSLVVKKGGMVVICAGTTGFNCTFDVRYMWMHQKRLQGSHFANLKQASAANQLMIERRLDPCMSEVFPWAEIPAAHTKMYRNQHKPGNMAVLVQAPRTGLRTFADVLEAGRKEGHHHHHH | soluble
3 | MSLDVRQSIHSAHAKTLDTQGLRNEFLVEKVFVADEYTMVYSHIDRIIVGGIMPITKTVSVGGEVGKQLGVSYFLERRELGVINIGGAGTITVDGQCYEIGHRDALYVGKGAKEVVFASIDTGTPAKFYYNCAPAHTTYPTKKVTPDEVSPVTLGDNLTSNRRTINKYFVPDVLETCQLSMGLTELAPGNLWNTMPCHTHERRMEVYFYFNMDDDACVFHMMGQPQETRHIVMHNEQAVISPSWSIHSGVGTKAYTFIWGMVGENQVFDDMDHVAVKDLREGHHHHHH | soluble
4 | MSLDYANGNHVLIIPKYKGSLLFTKHKIRGIEFPGGKREKGEASETAAAREVFEETGATIKYCEYIAQYKVDRQIGMSFTKDVFMVEIEAITEQPDYFETDGPLLYKSLSEIPEDKKSYLLKDPAILQCLERVIELGFYSEGHHHHHH | not soluble
5 | MSLEAIHRSTRIEFSKSSLAYNVQYTKQVSGAKTLWLAVKSNAYGHGLLQVSKIARECGVDGLAVSVLDEGIAIRQAGIDDFILILGPIDVKYAPIASKYHFLTTVSSLDWLKSADKILGKEKLSVNLAVDTGMNRIGVRSKKDLKDEIEFLQEHSDHFSYDGIFTHFASSDNPDDHYFQRQKNRWYELIDGLIMPRYVHVMNSGAAMYHSKELPGCNSIARVGTVVYGVEPSEGVLGPIDKLKPVFELKSALTFVKKIPAGEGISYGSKFVTSRDTWIGTLPIGYGDGWLAEYQDFQLLIDGQKCRQVGQIAMDQMMVALPHEYPIGTEVTLIGKSGKYENTLYDLHKHSGVPPWKITVAFSDRLKRMVVDEGHHHHHH | soluble
6 | MSLEAKNTFDLSGGYVLPGFIDSHAHLLSTGLEQTRLNLFEYEAKIEAIDAIRRYAEKHDKVVAYRWDESRWRDDPTYITASDLDGIVKPVVAFRRDGHMAVANDQAMRSIGQHRPDGIFREEDMQMLDPLVKPGEEEYVQALQTAIGISASLGITGVRDIVDRATYDAYRRIKSNVRIFKVIYAEDLFAGFGSDPSDWGVKTFLDGSLGARTAAHEGWDTKNLKMSEQQFERFCEGTWSRNLPVAVHAIGDLAVRVAAETMHRHAGRQRNSIEHFELVEDGVLDIIDANTIVSAQPNFLEWAGHGGMYQDRLGESWLYRNNPYRDILDKGLKLAFGSDSMPLGPMYGIHYAVNSEFSQQRITFDEAVRSYSEAGSYLIGAENWIGRIETGYSADFAVFNERNIEDRRRLKEAKPLMTIVHGNTIYDASRVDEGHHHHHH | not soluble
7 | MSLEALKEVAGEAEGEKSAVITHRNADPDAVGAALVVREVLRALRMNPCLYSPEGISRQSKRLLEAVGEEFGPLCSPDENPLIAVVVDAANLSQIAGAESLFRAARLKVVIDHHERGSIHEEADVALVDPGAGSSSELAVKTAVEAGTPLRPSVATAALGGIVYDTGRFLRASKLSFEAAAHLLSMGADYGKVLEAGRQRGRRDRGDLSLRLAKLKAFSRLKIGRACSELLIAVTHIGSFESDVAKSLVDEAADVAVAVAERTSEFRLSVRVSPLALEKGVTARAIASMLAEKFGGEGGGHDEAGMAHIPYTAAFSAEDMAVKAFNLISGRLGWMCVKTLEKGEGGSHHHHHH | soluble
8 | MSLEEILIIDDSRQIADFLAETVLPYYGYRSRVVPTGWEGLAFLKQRQPDLILLDLQLPDTSGLDVLRQMGELGYDIPVILMTAHGTEQTAVEAFRLGAKNYLIKPFDASEAGAAIERALRERRLQREKEVLTRTLQQRLQELTILSSVGKSVTSLLDLEELLERIVDAGVYLTHAEEGYLLLRDGDELYLRAAKNLGEERVQRFRVKMDDNVAGQVIRTVKPIRLDRSQHQDLKLRTGLLVQAMLQVPLIVGRHAIGVLAVDNRVQQRTFSENDQYLLSAIADYAAIAIENSREGHHHHHH | soluble
9 | MSLEFLMKKVVFALSALAVVSTSAFAAESGDGTIKFTGEIVDAPCVVSTDSQNQEVVLGQVKKNIFKAIGDKSSSKPFQIKLEDCDITSNTKVNVSFNGVGDTDDATLVSVNTEAGAATGVGIGIYDNANKLVEMNTGKSTTTLAAGQTVLYYTANYVATKDTVTTGYGNAEVDFNLSYEEGGSHHHHHH | soluble
10 | MSLEHQLANVYETKIRRNEHPTIPRPLVTFEPAAIRSKPSSPISELEVFTSEQLIKVTSSIRWKTLSSAVLGAGFKWHQTFVNRHVSKDYYCDDVEREFQTFLSNVGVDGTDALGMMTAAILEDVAITEATYESFKVRVFVTAGISNAVDAAKAHLRKRNEATVGTINTWVFIEGTLPDAAYVQALMTATEAKGRALAEKEILDPVTGTLATGTSTDSVMIASSQTGTYFPYAGTITPLGQAIGKLVYDATIQAVTDNEKRRLEREGHHHHHH | soluble
11 | MSLEKEAFMEKLLSFMKEEAYKPLTVQELEEMLNITEAEEFKELVKALVALEEKGLIVRTRSDRYGIPEKMNLIKGKISAHAKGFAFLLPEDTSLSDVFIPPNELNTAMNGDIVMVRLNSQSSGSRQEGTVIRILERAIQRVVGTYTETRNFGFVIPDDKKITSDIFIPKNGKNGAAEGHKVVVKLTSYPEGRMNAEGEVETILGHKNDPGIDILSVIHKHGLPGEFPADAMEQASSTPDTIDEKDLKDRRDLRDQVIVTIDGADAKDLDDAVTVTKLDDGSYKLGVHIADVSHYVTENSPIDKEALERGTSVYLVDRVIPMIPHRLSNGICSLNPKVDRLTLSCEMTINSQGQVTEHEIFQSVIKTTERMTYSDVNKILVDDDEELKQKYEPLVPMFKDMERLAQILRDKRMDRGAVDFDFKEAKVLVDDEGAVKDVVIRERSVAEKLIEEFMLVANETVAEHFHWMNVPFIYRIHEEPNAEKLQKFLEFVTTFGYVVKGTAGNIHPRALQSILDAVRDRPEETVISTVMLRSMKQAKYDPQSLGHFGLSTEFYTHFTSPIRRYPDLIVHRLIRTYLINGKVDEATQEKWAERLPDIAEHTSSMERRAVDAERETDDLKKAEYMLDKIGEEFDGMISSVTNFGMFVELPNTIEGLVHVSFMTDDYYRFDEQHFAMIGERTGNVFRIGDEITVKVVDVNKDERNIDFEIVGMKGTPRRPRELDSSRSRKRGKPARKRVQSTNTPVSPAPSEEKGEWFTKPKKKKKKRGFQNAPKQKRKKKKEGHHHHHH | soluble
12 | MSLEKFVVQDIQIDGLQRVALGAALLKMPVRVGDSVDSQDVANIIKALYSSGNFEDVKVLRDGNTLMVQVKERPTIASVSFSGNKAIKEEQLKQNLEASSIRVGEALDRTTLSNIEKGLEDFYYSVGKYNATVKAVVTPLPRNRADLKFVFTEGVSAKIQQINFIGNQVFSDEELLSRFNLNVDVAWWNFLADDKYKKQVLAGDIEALRTYYLDRGYLKFQVDSTQVAISPDKKGVYITLNLNEGEPYTVSKVQFRGELMGKEAEFTSLIPFEIGETYNGSAVTRLEESVKKVLGESGYAYPQVRTIPEFDDEKQQVSLVVHVEAGKRVYVRDIRFVGNNSTRDEVLRREMRQMEGSWLNSKDIETGKTRLNRLGFFETVEVQTVRVPGSEDQVDLVYSVKEANSGNVNFGVGYGTESGVSFQVGLQQDNFLGSGNRVGVNAMINDYQKNLTLEYRDPYWNLDGVSLGGKVFYNQFEASEAGIVDYTNESYGTSLTWGFPFDELNRFEFGIGYTHNKIGNLTPYLQVENFLAAQASNIDSGGNLLTDDFDINLSWTRNNLNNSYFPTAGNHQRAFYKMTVPGSDAQYFKLQYDVRQYFPLTKKHEFTLLLRGRLGYGNGYGQTDGKDNLFPFYENFYAGGFTSLRGFGSNSAGPKAVYRDYSGSNNGSDTATDDSVGGNAIALASVELIVPTPFASEEARNQIRTSIFYDMASVWDTEFDYRGKADYGNQYYYDYSDPTNYRSSYGVALQWVSPMGPLVFSLAKPIKKYEGDDEEFFTFTIGRTFEGHHHHHH | not soluble
13 | MSLEKKHSVNVEIENPPGRFFIPEDYVQNPVERLRLYRRLASSLDEEDLEEILEEMKDRFGEPPEEVKLLVDYFRLRVRASKLGIKKIRFDHSMVEIFPSRNSPFLNHPRYDRRSGSVVLYTRKDPVEFLMDMKGIITITTDPNSSSVDKLAAALEHHHHHH | soluble
14 | MSLEKKITPSELELNEFIKIINEMSGIDLTDKKNILALKLNKFLEGTNTKNFSEFLGKLKSNRQLKQETLDFVTIGETYFLRELAQLKEIIYYAKSLEKRVNILSAPCSSGEEVYSLALLAAQNFIKDMYILGVDINSSVIEKAKLGKYQGRTLQRLSESEKRRFFLESEDKFYTINKNELCTCKFELCNVFEEKFSRLGKFDIIASRNMIIYFDHESKLKLMERFHRILNDKGRLYVGNADLIPETIYFKKIFSPRGVYYEKEGHHHHHH | soluble
15 | MSLEKKTLLTHCPDAPGLISKITNICYKHQLNIIHNNEFVDNASGHFFMRTELEGYFNDATLLADLDHALPQGTRRKLISSSRKRIVILVTKEAHCLGDILMKNYDGSLDVDIAAVVGNYDTLQRLTERFDIPYHCVSHEGLSREAHEQALLDVIDQYQPDYLVLAKYMRVLTPAFVERFHHKIINIHHSFLPAFIGAKPYQQAYERGVKIIGATAHFVTNDLDEGPIIKQDVIPVDHTFSAQDMAQAGRDVEKNVLSKALNKVLNDHVFVYGNKTVILERHHHHHH | soluble
16 | MSLELFKSVKLDKNSGTPLYMQLSDKIAEMIENGILPADLKLPSIRQMSALLNVNSVTIVSCYKHLETKGYVYSRPGSGTYVAVVLPKQSENYSDRNIILDELYQSDDLNLINNGHIKINENTINFASATPKSSLFPVENFKLVLNEVLDRDRGNAFDYQDSQGYYPLRSSVRILLEKRKIACHEENIQIISGAQQGIDIIAKALLRQGDYVITESPTYTGAIAVFKSRGAEIADVPLSCDGPNLNILEYNLKKYKPKLIYTIPSFQNPTGISYSNEKRKEILALAERYDAYIIEDDYVSGLDFENMGFATVKSMDKSDRVIFLKSFSKIFMPGLRLGFMVVPSSLKSYIIEAKHATDISTSGLIQRAFDLYIRKGMWDGHFKLMFNIYKERYYKTIEALERHLPQNVQFHKPGGGLNIWLELPANCFTGSLLKAASAENIVFAPGRIFYSSTPTNLNNIRLSFAAVDADEIERGIEKLSELILRFDRNKSEGHHHHHH | soluble
17 | MSLELIEENDFDAIYIGNSKVMIKDYRGFVATLRILREKFPNAVLITDLEPFFYPLAVYLGVDAFDVRSLKIYSYEGLGFTPFSPVIWDRPNDPIEFAREMIKIIKIAIQEGKLRYLVENFLPTVMNVGILRIADKEHGDYLEKYTPVHDKTVVFISEHSISRPEVFRWRKRIEERFEPPKGIDLLLIFPCSAKKPYSRSRSHMMYRKVMKEALGEKVHRVHELVVTSPYGVVPREWEWLAKYDIVVTGHWSESEVRFAGELLAQTIEKYPDIPIVAHVEGGYREAVKYAMELVNRDVIFTAVGSSTISKESLDKLKKTLKEFDLRDAEKDYRRYRFYENVRKVFDYYFGLGAGEAVLPENAQIVGSKMLRLIVNNSQTGTFQEGVISVTPFGMQRIYDKLNSYWVEVDFDIRGDVFAAGVERADEGIRPNDIVGIVRDGRVVAVGRAVLSGEEMVRAKKGIAVRVRKRVKNKEGHHHHHH | not soluble
